# Laboratory results: the supplement of paper PMC9170038
# Test system: MS2 coat protein
# Experiment: apparent KD of MS2 coat protein; designed switch direction (-1 OFF switch, 1 ON switch): 1; higher = weaker reporter binding
# Summary of the method: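 SNAP-549-labelled MS2 coat protein was titrated, doubling from 0.7 or 1.5 nM to 3 µM, over designed RNA switches transcribed on Illumina chips by stalled E. coli RNA polymerase. Runs were done without input, with 200 uM small-molecule ligand, or with an oligonucleotide input. Apparent KD is the per-design median over clusters of curve-fitted normalised fluorescence.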
# [1] = Eterna round: R95, input ligand: FMN 200 uM
# [2] = Eterna round: R95, input ligand: microRNA oligo, concentration not stated
# [3] = Eterna round: R95, input ligand: none
# [4] = input ligand: microRNA oligo, concentration not stated
Sequence,apparent KD of MS2 coat protein [1] [µM],apparent KD of MS2 coat protein [2] [µM],apparent KD of MS2 coat protein [3] [µM],apparent KD of MS2 coat protein (input ligand: FMN 200 uM) [µM],apparent KD of MS2 coat protein [4] [µM],apparent KD of MS2 coat protein (input ligand: none) [µM]
UUAAGCAGCGGGCAGGAUAUGUAUUAAAAUACAUGAGGAUCACCCAUGUGCAGGUGUAACACCUGACAGAAGGGCCAAUCGGUGC [Soteed - 9] (puzzle: Same State 2),0.0363,0.197,0.329,,,
"UGGCUCAGACGAGGAUAUACGUGGUCACAUGAGGAUCACCCAUGUCUCGAGCUUCGGCUCGAGGCGUAGAAGGUGUCUGAGCCA [SSNG2/6-C2] (Eterna round: R96, puzzle: Same State NG 2)",,,,0.192,0.609,0.575
"UUUAGAUCGCGAGGAUAUCGCGAGGAUCACCCGUGAGAAGGCGCAGAGCCGAGGAUCACCCGGCUGAUCCUGAGAAGGAGGUCA (Eterna round: R96, puzzle: Same State NG 1)",,,,0.0917,0.206,0.25
"AGGCUCGUGCUAGGAUAUCUAGGAUAUGGACGAGGAUUACCCGAGCAGCAUUAGCGCACCAGAGGAGAGAAGGAGCGACAUGCG [pwkr ssNG2 2F5 2FMN.11] (Eterna round: R96, puzzle: Same State NG 2)",,,,0.00578,0.00491,0.016
UCUUGGUUUUUGCUCGUUUUUUGUGUUGAACAUGAGGAUCACCCAUGUAUUGUACGGUCCGGUUUAAUAGUGGUCCA [JMF 43] (puzzle: Sensor for hsa-mir-208a),0.0954,0.0598,0.105,,,
"GAUCGUUUGAUAGGAUAUCGCUAUACAUGAGGAUCACCCAUGUUUACCACGCUGGUUUUUCAUACCGAGAAGGAUUCUGAUGAU [salish99_SSNG02_r04_009] (Eterna round: R96, puzzle: Same State NG 2)",,,,0.0299,0.0249,0.0369
"UCGGGCGUACUUGCUGACAUGAGGAUCACCCAUGUGUUUGGGAAGGAUAUGGUUCCGUUUCGGUUCCAGAAGGUCCUGGGUGCU [salish99_SSNG3_r04_314] (Eterna round: R96, puzzle: Same State NG 3)",,,,0.337,0.254,0.246
"UGUUGUAUUACAGGAUAUCUAGAAUUUUUAUUUAGAGAAGGGUAUUCACAUGAGGAUCACCCAUGUAUAUACGAGGAAGUUGUG [JMF's solution 30] (Eterna round: R96, puzzle: Same State NG 1)",,,,,0.0279,
"UAUUAAUCUGUAGGAUAUGUAGGAUAUGGACGAGGAUCACCCGAGCAGCAUCAGCGCACCAGAGGACAGAAGGACGGCCGGGUG [pwkr ssNG2 2F5 2FMN.24] (Eterna round: R96, puzzle: Same State NG 2)",,,,1.67,0.411,0.177
AAAGAACAUGAGGAUCACCCAUGUGGAAGAGGCACAGGAUAUCACCUCGCACGUGCGAGGUGAGAAGGGUGAUGGU [Zalecema] (puzzle: Same State 1),0.122,0.0807,0.128,,,
"CCGGGUAAUGGAGGAUAUGGAGCCUUAUUGGCUCCAGAAGGUCAAUAACAUGAGGAUCACCCAUGUCCGGCGGUCAAUAGACCG [Eli NG1ss - 68] (Eterna round: R96, puzzle: Same State NG 1)",,,,0.0875,0.202,0.775
"UGAAUAGUUACAGGAUAUGAGUUGUAAAUUGGGUCAGAAGGGUGGGUGUUUUGCGCGGUGUGUUACAUGAGGAUCACCCAUGUU [SameState NG1 #28] (Eterna round: R96, puzzle: Same State NG 1)",,,,0.0818,0.0751,0.122
"AAGGGCGGAAACAACAUGAGGAUCACCCAUGUUGCCGAAAGGCAGGAUAUCCGGCGAAAGCAGAAGGAGAAGGGUCAAGAACCA [AK SSNG3-V2-42.1] (Eterna round: R96, puzzle: Same State NG 3)",,,,0.039,0.016,0.0225
CAGCGCUGUUGAGAGGAUAUGCGGUGAUGGACAUGAGGAUCACCCAUGUUAGCGACAGCAUUACGGUAGAAGGCUUCACAGCUGC [Soteed Omei mod 16] (puzzle: Same State 2),0.0389,0.126,0.235,,,
GAUUCACAUGAGGAUCACCCAUGUCGUUUUAUGGGAGGAUAUACGUGGACCGUAGUCCGCGUAGAAGGCCUAAUUG [JL-ss1-3.24 janelle mod] (puzzle: Same State 1),,0.0921,,,,
"AGUCAAGACAUGAGGAUCACCCAUGUUGGGAACAUGGAGGACGAGGAUAUGUGUCGAUAUGUGACGUAGAAGGCGUCAGACAAA [Eternabot solution 33] (Eterna round: R96, puzzle: Same State NG 3)",,,,0.189,0.224,0.419

Sequence,apparent KD of MS2 coat protein [1] [µM],apparent KD of MS2 coat protein [2] [µM],apparent KD of MS2 coat protein [3] [µM],apparent KD of MS2 coat protein (input ligand: FMN 200 uM) [µM],apparent KD of MS2 coat protein [4] [µM],apparent KD of MS2 coat protein (input ligand: none) [µM]
"GUUACAUGAGGAUCACCCAUGUAUGUGUGGGAGUAAGUGUCUUAGGAUAUCUAUUAUUUAAAUUAAGAGAAGGAAGAUUGUUGU [JMF's solution 7] (Eterna round: R96, puzzle: Same State NG 3)",,,,,0.093,
AAUUAUUAACAUGAGGAUCACCCAUGUAUAAGGGAGAAUAUUAUUAUUAUUAUUAACAAGCUUUUUGCUUGUCUCAU [Ribo-boogie] (puzzle: Sensor for hsa-mir-208a version 2),0.0486,0.0679,0.0684,,,
"UAAAUACAUGAGGAUCACCCAUGUCAAAAGACAUGAGGAUAUGUACAGACUUCGGUCUGUACAGAAGGCAUGAAAA [salish99_ss1_r3_095] (Eterna round: R96, puzzle: Same State 1)",,,,,0.397,
ACAAGCUUUUCUGCAUUGAAAGGUUGGUUACAUGAGGAUCACCCAUGUUUUUAUGAAAAUAAUGCUCCUCGUCUUAU [JR_SHM208A_Sub093] (puzzle: Sensor for hsa-mir-208a),0.264,0.0198,0.252,,,
"GCUAGGAUAUGACGAGGAUCACCCGUUAGAAGGAGCUUCAGCUAGGAUAUGACGAGGAUCACCCGUUAGAAGGAGCACUACUCU [pwkr ssNG3 DX 2xF5 +2xFMN.8] (Eterna round: R96, puzzle: Same State NG 3)",,,,0.205,0.0909,0.0914
GGUCCAGCCUGAGCUGGACUACAGCAUGUACAUGAGGAUCACCCAUGUCAUGUACAUGCUUUUUGUUUGUCUUAAAA [Sensorship 10 - Jieux - Sensor for hsa-mir-208a] (puzzle: Sensor for hsa-mir-208a),0.0202,0.0388,0.0246,,,
AGGGAGGAAGCUGAGGAUAUCGUAAGGAGGACAUGAGGAUCACCCAUGUGUGUAGAAUUGGAGGACGAGAAGGCAGAGGAGUGGG [JR_SS2_Sub053] (puzzle: Same State 2),0.034,0.0213,0.037,,,
AUUUUAAAACAUGAGGAUCACCCAUGUUACAAGCUUUUUUUUUUUUUUUUUUUUUGGUGAUCCUCAGCUCGUCUUAU [lrlee 1] (puzzle: Sensor for hsa-mir-208a version 2),0.00151,0.00516,0.000902,,,
GCCACACAUGAGGAUCACCCAUGUAAUUACAUGGGAGGAUAUCAGUGCUCGAAAGAGCACUGAGAAGGCCCGUGGC [SS1 - Omei A v4] (puzzle: Same State 1),0.12,0.0401,0.309,,,
"GGUAGGUUACUACCAAACAACAUGAGGAUCACCCAUGUGUGGAAGGAUAUGGUACCUAUUUGGUACCAGAAGGUCCAAUUAAUU [Fiskers NG3ss - 4] (Eterna round: R96, puzzle: Same State NG 3)",,,,0.0723,0.0364,0.0631
GAAGGAUGAGCGUAGGAUAUAGGAGGAGUGACAUGAGGAUCACCCAUGUAGUAAGAGGGAGGGUACUAGAAGGACGAGGAAGAAG [JR_SS2_Sub066] (puzzle: Same State 2),0.602,0.006,0.0163,,,
UGUCCAGCCUGUGCUGGUCUUUUGCAUGUACAUGAGGAUCACCCAUGUCGUGUUCAUGCUUUUUGCUCGUCUUUAAA [Photon Torp-02] (puzzle: Sensor for hsa-mir-208a),0.0497,0.0172,0.0535,,,
"GGUCGAAACCACAUGAGGAUCACCCAUGUUCCGGAAACGGCGCAGGAUAUCUGUCCGAAAAGGUCAGAGAAGGGUGAAACGACC [Fiskers NG3ss - 79] (Eterna round: R96, puzzle: Same State NG 3)",,,,0.546,0.699,0.944
CCGCGCUGUCGAGAGGAUAUGCGGUGAUGGACAUGAGGAUCACCCAUGUUAGCGAUAGCAUUACUGUAGAAGGCUCUACAGCGGC [JL-ss2-3.10 ViennaUCT mod] (puzzle: Same State 2),0.0129,0.0183,0.0213,,,
AUUAUACAUGAGGAUCACCCAUGUCAACGUAGUCGAGGAUAUGGGCAGCCGUGAGGCGUACUAGAAGGCGAAGAGA [Mat - Same State 1 - Mod of JL - D8] (puzzle: Same State 1),0.0843,0.235,0.385,,,
AGUUGUGGAAAACUAUAGCAAAAGCAUGUACAUGAGGAUCACCCAUGUCAUGUACAAGCUUUUUGCUCGUCUUAUGG [ak 3 mod of one Eli's designs.] (puzzle: Sensor for hsa-mir-208a),0.025,0.0139,0.0503,,,
